Source: patent US20250282885A1 (VST BIO, published 2025)

Key:
[1] = biological target: T1, human Sdc2 (human, UniProt P34741 19-144, limits assumed); experiment: Octet tandem binning; saturating Ab m5 19844-R4M-P3-A12 (row boxed, self-self >0.09)
T1 construct: Antigen of the Octet tandem binning, loaded on biosensors at 100 nM; also called huSdc2; hSdc2

[2] = biological target: T1, human Sdc2; experiment: Octet tandem binning; saturating Ab f4 19844-R3-P3-C11
[3] = biological target: T1, human Sdc2; experiment: Kd (human Sdc2), summary table of the mAbs
[4] = biological target: T1, human Sdc2; experiment: Octet tandem binning; saturating Ab m4 19844-R4M-P1-A10
[5] = biological target: T1, human Sdc2; experiment: Octet tandem binning; saturating Ab f9 19838-6-E17-A
[6] = biological target: T1, human Sdc2; experiment: Octet tandem binning; saturating Ab m2 19838-8G17-A
[7] = biological target: T1, human Sdc2; experiment: Octet tandem binning; saturating Ab m1 19838-20H19-AB
[8] = biological target: T1, human Sdc2; experiment: Octet tandem binning; saturating Ab f6 19844-R3-P3-E09
[9] = biological target: T1, human Sdc2; experiment: Octet tandem binning; saturating Ab f8 19844-R4M-P2-C02
[10] = biological target: T1, human Sdc2; experiment: Octet tandem binning; saturating Ab m7 19844-R3-P1-E07
[11] = biological target: T1, human Sdc2; experiment: Octet tandem binning; saturating Ab f11 19838-20-H19-A
[12] = biological target: T1, human Sdc2; experiment: Octet tandem binning; Buffer in place of a saturating Ab
[13] = biological target: T1, human Sdc2; experiment: Octet tandem binning; saturating Ab m8 19844-R4M-P1-B01 (marked non-binding ligand)
[14] = biological target: human Sdc2 on Human Umbilical Vein Endothelial Cells (HUVEC) (human, UniProt P34741 19-201); experiment: cell-based or functional assay
[15] = biological target: T1, human Sdc2; experiment: Octet BLI, HIS1K sensor loaded with huSdc2, antibody as sample; Full R2 0.9943
[16] = biological target: T1, human Sdc2; experiment: Octet tandem binning; saturating Ab f3 19838-6N03-A
[17] = biological target: T1, human Sdc2; experiment: Octet BLI, heading box over the sensorgram
[18] = biological target: T1, human Sdc2; experiment: Octet tandem binning; saturating Ab f12 19838-6-N03-A
[19] = biological target: T1, human Sdc2; experiment: Octet tandem binning; saturating Ab f10 19838-10-I12-A
[20] = biological target: T1, human Sdc2; experiment: Octet tandem binning; saturating Ab f5 19844-R4M-P3-E06
[21] = biological target: T1, human Sdc2; experiment: Octet tandem binning; saturating Ab m3 19844-R3-P1-C02 (row boxed, self-self >0.09)
[22] = biological target: T1, human Sdc2; experiment: Octet tandem binning; saturating Ab m6 19838-20H19-AA (marked non-binding ligand)
[23] = biological target: T2, pig Sdc2 (pig, UniProt F1S0L5 19-145); experiment: Octet BLI, HIS1K sensor loaded with pigSdc2, antibody as sample; Full R2 0.9708
T2 construct: also called pSdc2

[24] = biological target: T1, human Sdc2; experiment: Octet tandem binning; saturating Ab f7 19844-R3-P3-A12
[25] = biological target: T3, mouse Sdc2 (mouse, UniProt P43407 19-145, limits assumed); experiment: Octet BLI, HIS1K sensor loaded with moSdc2, antibody as sample (curves 111.1, 37, 12.3, 4.1, 1.4, unit inferred); Full R2 0.8674
T3 construct: Immobilised on Maxisorp plates for panning and ELISA; also called mSdc2; moSdc2

[26] = biological target: T2, pig Sdc2; experiment: Octet BLI, heading box over the sensorgram; the box prints nm, the table gives 4.74E-09 M
[27] = biological target: T3, mouse Sdc2; experiment: Octet BLI, HIS1K sensor loaded with moSdc2, antibody as sample; Full R2 0.8674
[28] = biological target: T1, human Sdc2; experiment: Octet BLI, heading box over the sensorgram; remark: listed apart in the source
[29] = biological target: T3, mouse Sdc2; experiment: Octet BLI, heading box over the sensorgram
[30] = biological target: T1, human Sdc2; experiment: Octet BLI, HIS1K sensor loaded with huSdc2, antibody as sample; Full R2 0.9663

T3 sequence (P43407 19-145 limits assumed): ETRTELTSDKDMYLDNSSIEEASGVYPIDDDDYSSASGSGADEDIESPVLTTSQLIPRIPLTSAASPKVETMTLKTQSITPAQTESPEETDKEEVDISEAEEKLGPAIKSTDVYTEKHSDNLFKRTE
T1 sequence (P34741 19-144 limits assumed): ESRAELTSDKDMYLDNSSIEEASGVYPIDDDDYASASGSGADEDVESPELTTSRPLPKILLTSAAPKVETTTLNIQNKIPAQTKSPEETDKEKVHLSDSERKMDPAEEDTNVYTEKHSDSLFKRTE
human Sdc2 on Human Umbilical Vein Endothelial Cells (HUVEC), sequence (P34741 19-201 limits assumed): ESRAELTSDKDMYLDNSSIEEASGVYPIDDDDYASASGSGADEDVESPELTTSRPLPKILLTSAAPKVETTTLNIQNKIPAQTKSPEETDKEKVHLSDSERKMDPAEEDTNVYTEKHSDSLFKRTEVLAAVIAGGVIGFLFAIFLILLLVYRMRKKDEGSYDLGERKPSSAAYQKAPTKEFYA

B1: R3-P3-A12 (antibody, human IgG1, kappa, V domains shown)
VH: EVQLVESGGGLVQPGRSLRLSCGVSGFTFSSFGMHWVRQAPGKGLEWVAVISNDALHKNYGDSVKGRFTVTRDNSRNTLFLQMTSLRPEDTAVYYCAKDVVRGHTSGSLGSWGQGTLVTVSS
VL: not shown
notes: human IgG1 kappa from the phage campaign
raw competing-Ab binding signal [1]: 0.61
raw competing-Ab binding signal [2]: 0.0654
Kd [3]: 2.8 nM
raw competing-Ab binding signal [4]: 0.539
raw competing-Ab binding signal [5]: 0.594
raw competing-Ab binding signal [6]: 0.548
raw competing-Ab binding signal [7]: 0.459
raw competing-Ab binding signal [8]: 0.322
raw competing-Ab binding signal [9]: 0.562
raw competing-Ab binding signal [10]: 0.618
raw competing-Ab binding signal [11]: 0.529
raw competing-Ab binding signal [12]: 0.599
raw competing-Ab binding signal [13]: 0.619
% Inhibition of VEGFA-induced permeability at 24hrs (20ug/ml) [14]: 90%
Kd [15]: 2.8 nM
koff [15]: 0.00131 s⁻¹
kon [15]: 469000 M⁻¹ s⁻¹
raw competing-Ab binding signal [16]: 0.704
Kd [17]: ~2.8 nM
raw competing-Ab binding signal [18]: 0.794
raw competing-Ab binding signal [19]: 0.3
raw competing-Ab binding signal [20]: 0.618
raw competing-Ab binding signal [21]: 0.562
raw competing-Ab binding signal [22]: 0.636

B2: R3-P1-C02 (antibody, human IgG1, kappa, V domains shown)
VH: EVQLVESGGGVVQPGGSLRISCVASEFPFSDFGMHWVRQAPGKGLEWVAFVRSHGSGKYYADSVKGRFTISGDKSKSTLYLQMESLRPDDAAVYYCTTLADVWGQGTTVTVSS
VL: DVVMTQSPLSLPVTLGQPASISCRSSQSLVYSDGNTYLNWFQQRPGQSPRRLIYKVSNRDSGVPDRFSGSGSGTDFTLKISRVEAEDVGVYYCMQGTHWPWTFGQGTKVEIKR
raw competing-Ab binding signal [1]: 0.231
raw competing-Ab binding signal [2]: 0.0466
Kd [3]: 2.81 nM
raw competing-Ab binding signal [4]: 0.126
raw competing-Ab binding signal [5]: 0.227
raw competing-Ab binding signal [6]: 0.207
raw competing-Ab binding signal [7]: 0.27
raw competing-Ab binding signal [8]: 0.0516
raw competing-Ab binding signal [9]: 0.0877
Kd [23]: 4.74 nM
koff [23]: 0.0103 s⁻¹
kon [23]: 2.16e+06 M⁻¹ s⁻¹
raw competing-Ab binding signal [10]: 0.24
raw competing-Ab binding signal [24]: 0.103
raw competing-Ab binding signal [11]: 0.286
raw competing-Ab binding signal [12]: 0.223
raw competing-Ab binding signal [13]: 0.204
% Inhibition of VEGFA-induced permeability at 24hrs (20ug/ml) [14]: 100%
raw competing-Ab binding signal [16]: 0.221
raw competing-Ab binding signal [18]: 0.233
raw competing-Ab binding signal [19]: 0.235
raw competing-Ab binding signal [20]: -0.0088
Kd [25]: 2.44 nM
Kd [26]: ~4.74 nM
koff [27]: 0.114 s⁻¹
raw competing-Ab binding signal [22]: 0.254
Kd [28]: ~2.81 nM
Kd [29]: ~2.44 nM
Kd [30]: 2.81 nM
koff [30]: 0.00946 s⁻¹
kon [30]: 3.36e+06 M⁻¹ s⁻¹
